The DeepSol protein solubility set

Assay: soluble on expression in E. coli; label from the status in PepcDB or PDB records

| Sequence | soluble on expression in E. coli |
| --- | --- |
| MAHHHHHHMDFVKELKSSQDYMNNELTYGAHNYDPIPVVLKRGKGVFVYDIEDRRYYDFLSAYSSVNQGHCHPDILNAMINQAKKLTICSRAFFSDSLGVCERYLTNLFGYDKVLMMNTGAEASETAYKLCRKWGYEVKKIPENSAKIIVCNNNFSGRTLGCVSASTDKKCKNNFGPFVPNFLKVPYDDLEALEKELQDPNVCAFIVEPVQGEAGVIVPSDSYFPGVASLCKKYNVLFVADEVQTGLGRTGKLLCTHHYGVKPDVILLGKALSGGHYPISAILANDDVMLVLKPGEHGSTYGGNPLAAAICVEALKVLINEKLCENADKLGAPFLQNLKEQLKDSKVVREVRGKGLLCAIEFKNDLVNVWDICLKFKENGLITRSVHDKTVRLTPPLCITKEQLDECTEIIVKTVKFFDDNL | soluble |
| MANHVSLILPPLSLYIHIPWCVQKCPYCDFNSHTQKGTIPEAEYIQHLLADLSQDLVTYKTAIANRKIHSIFIGGGTPSLFSAEAIAYLLAEIKQRIAFAPKIEITLEANPGTAEAERFICYTEAGINRISMGIQSFEEEKLRKLGRIHDAHEAKQAVYFAKNALISPSRTVGLHSFNLDLMHGLPNQTLEQALADLNTAISLNPPHFSWYQLTIEPNTMFYYRQPTLPDDDELWAIFEQGHQLLTMAGYQQYETSAYAKQGFQCQHNLNYWRFGDYLAIGCGAHGKISYPSGEIYRFSKTKHPKGYMRGDYRDSQQSIQLDDRPFEFFMNRFRLLEPTPKQEFECYTGLDCERVRPTIDWALNKHYISETSTTWQVTQKGKLFLNELLAGFLTLEHHHHHH | not soluble |
| NATERSPVIIGLAGFTGSGRSFLNRTYTSMDFLTALKEIDEKRSDLGFIIVLPDVMTGLYGNQYLNSSAVGNYEDFIVKDIVGIIRERFGERPMGVFGKSSGGFGSYTLAVRHPDIFSGFIDVSGDSAFEYVYIPDFPDTYKEIRRQGLYRWFDEIHRKLSLQNQDIKVANIVAMSAFYSPDPGSPMGISLPFDIETGELIESVWNRWLKFDPARNIADYMDVLRDMAIFLQVGAKDEFHTDIGIGTMHRKLEQENVVHFYEVYDSGHFGIDYFYLKSLPLLIELIEQ | not soluble |
| MGHHHHHHSHMANSAGSMANSAGSMATLSDFFPEADPVLEKNYRRCVDLAINMSWSVPGQFKLVETPINSFLLVGDVLPNDMIESKPVNSTNLVNIPFPLSTLGVSTSKKSVEVTSYKSETEKFQEAASISEHSIRGSIVYEGLTWITAMGYNVTDFLVNMLEQMKCPENWSGLHPVDPLACVWLLYFGPKSRCSEIACVSELFIGKKGPILLPPHMYRGDTSVNSFAHHLCQYVKHLYADYEPEILSCPLDITRVKGCLSDLRQVAESCVFLSQRCLLCHLYKQNAAVSKNILTASDCIILGGSGKSLLGTYMKSYKDPATHDSILLPTYNLEAIVNYILEHYGHETAGQEINWE | not soluble |
| MSSIRVVALDWRYEEILHALGITPVGIVEIGKSKEPQTLKGELEGVTSVGQAKQPNLEVIQSLEPDLILASPTRQAAIMDQLKEIAPTHAYGDTSYTEVLDAMDDIATKVGAEDKAKEVRTRIESKIAQAKNKVEPGTRTALIGWSKNTLYTWVKDSFAGSLLTAAGYEYGYDGEKSAIESKTDVAELTGDKLPEMKLDVMYLYNDIEGFRSSPYADVVSNIVDVEQDTWSRSRGPLAAEAMLDQIINSLEHHHHHH | soluble |
| MGSDKIHHHHHHMTDLAPILAEADKALPQSLDRLFDLVRIASISTDPAYKADCRKAAEWLAQELKGLGFNASVRDTPGHPMVVGHHDADRPDAPHVLFYGHYDVQPVDPLDLWENDPFEPAIKEIEPGRKVITGRGTSDDKGQLMTFVEACRAYKAVHGGLPIKITILFEGEEESGSPSLKPFLAANEDELKCDFALVCDTGMWDRETPAIAAALRGLVGEEVTVTAADRDLHSGLFGGAAANPIHILAKVLADLHDETGRVTIDGFYEGVEETPVNIKASWEKLGRTADKFLNDVGLSIPSGETGRSVLELTWARPTAEVNGITGGYTGEGFKTVIASKASAKVSFRLVGEQDPAKIRENFRAFVKARIPGDCSVEFHEHGASPAIQLPYDSPFLTKAKSALSDEWPKPAEVIGMGGSIPIVGDFQTMLGMDSLLVGFGLVDDRIHSPNEKYELESFHKGIRSWIRILDALAH | not soluble |
| MSLGNFHTMLDALLEDQEEAVLATIVQVEGSAYRKAGASMLFKKKGRRIGLLSGGCVEEDVFQRISALGDQLTSTLIPYDMRSEDDLSWGMGAGCNGIIHVHAERITQEKRRHYEKVRDCLHSGKAVTSVIKIESSHYLFLTENGHFGNWPDAPLQDIQRTVSTLHLPHFDQTTNMFIQRIEPKPRLILFGAGPDNVPLANLAADTGFSVIVTDWRPAYCTSSLFPKADQLITAFPEQMLSEFQFFPHDAAVVATHHYQHDQTIINFLFSQNLHYIGLLGSANRTKRLLSGKHPPSHFYSPVGLKIGAEGPEEIAVSVVAEIIQTRKRVAVVEGGSHHHHHH | soluble |
| MAHHHHHHMDSQGPFLVIPTKRGAVPTLTPAQANAILEPSERILATSVFEAMDFVKPCIEAGMQLSTYCGLSGYKTVLTLRSSFQGLHASASSSDTAVAGDNERGRAVISFEKWRDVVKATRPTFAVAVHESLPLCEPLNKRRRVAATRSETWLANTEEASDLGCTILPSISAGCTHDGGYIDAVPRGENSYEFFQTLQALQLSPKKCTMCVAPSISVLLAAMVSNVSLLECPLPWTLAEKGVALLLPLEEATTTSPEPVVPLLDLNDNVYALDINPIAEGCDCFTCKRHCRAYLHHLLTVQEMNSDILLVMHNLAQVVLLVRAYRCASAPTREALVSRVASAL | not soluble |
| MGSDKIHHHHHHMENILEIVNLNKSYNGIPALSNINLSVKAGEIHGIVGANGSGKTTLMNILFGNPIIHETGGYQGQIFFKGNRVNFKNCAEAIRQGIGMVHQEFALIPDMTVGENIKLGRENTHSLTDRLFGRKYSFIDWKQDYENAWQTLKRLGISVAVGIKIMDLSVNIRQFIEIAREIDRSDLKLLILDEPTAVLNKNDGLKLIEILKDMSNSEIGIIFISHRLEEVQYVCDKVSVLRDGKLVSQYAKGNIYVNDLAQDMIGHTINKAAAEKREIKNKPLITFKDFSVEMPGEEVKNLNLSVYKGEILGLTSLSGHGKLALGYGMMDMYPVDGEVYYENKKIVKMNARTNIIKGMYVLPDDRQGLGILADQSLESNIVFTGNQIKNMFIRNSAFNFLGFIDHHKTNLHVYKMMLDLDIKCTSIKQKVKELSGGNQQKVCIARALTVDPKLLFVAEPTRGIDISAKEKILNMLIEINRTRNTTIIIASSELDELKRVCDRIAVMVEGKIFKILSPDSPDVDFGLVLSGEEEVDCEKL | not soluble |
| MGSDKIHHHHHHMALEDLVILLVEDDPVFRSIVAAFLTNRGATVIEADDGQQGLERFSQHDFDIVLADLSMPILGGLDMLKQMIKRKPDTLSIVISGNQVMADVVEALRVGASDYLVKPVNDLCLIENAIRQCVGGSSQQDVQLEDLDELSYQELEEHLNLLEQNAEAAKSVQQQLFPPSVIDYPKAKIDYSLFKHDEVSAYFIDSVNVGERYLIMYMAHFHPQDNRCAFASVLLKSFVNQKLKQFRNDNTETVIEPFNMLSYLNERMSKSGLDIYVDIVYAVVELTHYRASIAQAGKGLRCYIRNEEGLMPLAMPDALQLGILEWGQPSTQFRNLMPGESLCVASSNIEHRDMLLNDEFVGLSYSPEVAPGGYVQMSF | not soluble |
| MGSDKIHHHHHHMPTLIERIHQVELGNLTQLDQLCHQLGLPYFLMGGSLLGAIRHQGFIPWDDDVDVGLLRADYDQLLAAAPTHLADSPYFLQTPTSDENYGLSYAKLLDRRTYIEEKRNVNNARKGIFIDIFPLDRIPQDTSAQQKQSTKFQLLNTRILLQLRYHLVDNPLRKLQGPLSSEQLTSVNALKAERQAVMTQYQAEITLPQVKNLSSQYAYAKEVFTVAELSDLTTVPFEHLQVQVPRNYATILTRMYGDYLALPPENQRTKKHLERVIMDNQVFTD | not soluble |
| MAGGARDDLAEKMAGEVALSDDPGATLRKWRTDFDVAQTELADELDVSPSVVSDYESGRRDNPGIGVVRRLVVALLDIDENRGGDHIRQHARVLSAGFDSDVVHDLREYSANVGVERVYDAIDAEELFRGSQDTVAGHTVINSIAAITRLSSDEFYQLYGQSTNRALVFTNVTRGESPLVALRVVSPTPNAVILHGLEDEAVWEHAQDLARIDDFSLAITDIELEDLLGGLRELP | not soluble |
| MLGGFVMDLFPFLPGVRISLQSGWLPSGAADALLAGLLEGVPWEVHRIHIFGREVNSPRLSCWVGDPQASYRYSGRCFQPRPWWPALAELRMCLEGETGAVFNSVLLNRYRHGGDAIGWHSDDEAELGIDPLIASVSLGASRRFVFRHRRERHLRAECVLSHGDLLLMGGTTQRDYQHALPRTLRVVGERVNLTFRRILMLEHHHHHH | soluble |
| MYYGIKALTVGRGESVRAKITTTIEEALLNKAKALAKQEGLSGANAIIERALELYFTSIQSEVWEKSLSSGWIKKLVLKRDSILYENIKCRKTMENCRPDDYTPESLKAKGWKKV | not soluble |
| AIACTGCVQKQYPDRGNTCLENGSYLMNFVGCANCHQRDFVLISDRTMVNEDEEEIVTYLHMCKNCEHVIARHEYTFTVVDDYQEYTMLCMLCGKAEDSISVLPDDPRQTAPLF | soluble |
| MILLSVHDSFLLDHNLPSACDKVFERLLDVTNSSFGFIATLQEDEDGQSLYLPAISNLAWDEETLTWYRHQRRTHGGLRLRKLDNLFGHVVTHNTVVCTNSLLRQKAGRDLPPIHPALHSLLGIPITHNGKTVGMIALANRREGYDQTMIELEHHHHHH | not soluble |
| MAYQLYRNTTLGNSLQESLDELIQSQQITPQLALQVLLQFDKAINSALAQRVRNRVNFRVRMSSCIWKSVLLTLRAYVDLTHHSKIWLVWFGNLFYNRCAKFIHSMCFRIAFRF | not soluble |
| GPGSMDIDSPYKILGIPQSASVADIRAAFRRLALTTHPDKQGSNTSGGEAQMMLYSSHPFYVIKEASDILLDPVRRAEYDEGQQRMYARSIGVVSDVHDISDFRLVEERKALCSEDRVCGDVTIQVYEMECRCGGAFEIFLVKGEEGNMDKLCGCDSCSLIVSVRRQTQQ | soluble |
| MAKIGFVSLGCPKALVDSEQILSRLKALGYETSPSYEEAELVIVNTCGFINEAVEESLEAIGEALKENGKVVVTGCLGARPEKIRERHPQVLAVTGPGEVERVLEAVQEVLPAPRDPFLDLIPPQVKLTPRHYAYVKLSEGCDHRCSFCIIPKLRGRLRSRDAADVLAEAARLVATGTKELLLVAQDLSAYGVDLGHRESLWGDRPVRAELKDLLTHMAELGVWIRLHYVYPYPHVKDLLPLMAEGKVLPYLDVPLQHASPRILRLMRRPGGYESHLKTLKAWREVVPELALRSTFIVGFPGETEEDFQILLDFLEEAELDRVGVFAYSPVEGAEANRLPDPVPEEVKEERKARLLEVQARVSLRKNQRFVGKTLEVLVDELPEPGLAVGRTYRDAPGVDGVVYVETDGTVRVGERIPVRILRADTYDLHGVQAAAALEHHHHHH | soluble |
| MNSNRTPSQKVLARQEKIKAVALELFLTKGYQETSLSDIIKLSGGSYSNIYDGFKSKEGLFFEILDDICKKHFHLIYSKTQEIKNGTLKEILTSFGLAFIEIFNQPEAVAFGKIIYSQVYDKDRHLANWIENNQQNFSYNILMGFFKQQNNSYMKKNAEKLAVLFCTMLKEPYHHLNVLINAPLKNKKEQKEHVEFVVNVFLNGINSSKA | soluble |
| MGSDKIHHHHHHMNVAILGNQARAMVNFWSVFIARLQADGHTVVCIIPPGDAEGDAALTSMGVRVRHYPLDRKGLNPVRDVATFAALYRIFRQERPDRLFCFTIKPVIYGATAAALARVPGRVAMITGLGYMFEADTPVKRLLNRVAVLMYRAALACVHTVFFQNEEDRAVFTAKGIVPAGTEVAMSRGTGVALDHFAPAETVTAPVTFLLVGRLIEAKGLYEYAEAARMLKARHPEARFRVLGPPEQGLGSVPMETINQWHREGVIEYMGQTRDVRPFLREASVVVLPSWREGTPCSVMEGMSMARAAIVTDAPGCREVVEDGVNGFMVPLRSPEALAAAMERFIEDPSLVQRMGRAGRDLAEREFDAEKVAAHIMRVMRLDAAPRAGGNPQ | not soluble |
